Biological target: SARS-CoV-2 spike on ZsGreen SARS-CoV-2-pseudotyped lentivirus (SARS-CoV-2) (UniProt P0DTC2)
Assay: cell-based or functional assay

Work on “Nb6-tri (trivalent Nb6 with two 20 amino acid linkers) (VHH)” yielded an IC50, inhibition of SARS-CoV-2 pseudotyped lentivirus infection of 1.2 nM and a fold gain of inhibitory activity against monovalent Nb6, pseudovirus of 2000 fold.

Reference: patent CN116472284A
